Results taken from US20250353924A1 (CITY OF HOPE, published 2025).

T1: human CD84 on the cell surface (human, UniProt Q9UIB8 22-345)
T1 construct: whole, on cells; also called Cluster of Differentiation 84
T1 sequence (looked up): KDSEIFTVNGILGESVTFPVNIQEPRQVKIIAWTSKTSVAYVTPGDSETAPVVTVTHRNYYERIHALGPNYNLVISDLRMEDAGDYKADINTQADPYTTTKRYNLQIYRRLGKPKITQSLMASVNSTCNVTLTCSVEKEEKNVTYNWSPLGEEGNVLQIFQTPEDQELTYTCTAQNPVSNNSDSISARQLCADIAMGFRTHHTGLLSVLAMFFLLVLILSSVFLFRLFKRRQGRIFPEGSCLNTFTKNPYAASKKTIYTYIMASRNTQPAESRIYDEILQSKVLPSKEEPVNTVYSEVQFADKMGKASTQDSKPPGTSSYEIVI

B1: anti-CD84 hybridoma clone 5C6 (antibody, V domains shown)
VH: QVHLQQSGAELVRPGTSVKISCKASGYTFTNYWLGWVKQRPGHGLEWIGDIFPGGGYINYHEKFKGKATLTADTSSSTAYMQLSSLTSEDSAVYFCGYGNIAMDYWGQGTSVTVSS
VL: QIILTQTPAIMSASPGEKVTMTCSASSSVSYVHWYQQKSGTSPKRWIYDTSKLASGVPARFSGSGSGTSYSLTISTMEAEDAATYYCQQWNNSPRTFGGGTKLEIK
B2: anti-CD84 hybridoma clone 7D2 (antibody, V domains shown)
VH: QVHLQQSGAELVRPGTSVKISCKASGYTFTNYWLGWVKQRPGHGLEWIGDIFPGGGYINYHEKFKGKATLTADTSSSTAYMQLSSLTSEDSAVYFCAYGNVAMDYWGQGTSVTVSS
VL: QIILTQTPAIMSASPGEKVTVTCSASSSVSYVHWYQQKSGTSPKRWIYDTSKLASGVPARFSGSGSGTSYSLTISTMEAEDAATYYCQQWNNSPRTFGGGTKLEIK
B3: anti-CD84 hybridoma clone 2H7 (antibody, V domains shown)
VH: DVQLQESGPGLVKPSQSLSLTCTVTGYSITSDYAWNWIRQFPGNKLEWMGYISYSGTTSYNPSLKSRISITRDTSKNQFFLQLNSVTTEDTATYYCASLHYYGSRYKKLYAMDYWGQGTLATVSS
VL: NIVMTQSPKSMSMSVGERVTLSCKASDNVGTYVSWYQQKPEQSPKLLIYGASNRYTGVPDRFTGSGSATDFTLTISSVQAEDLADYHCGQSYSYPTFGGGTKLEIK
B4: anti-CD84 hybridoma clone 4B11 (antibody, V domains shown)
VH: EVKLVESGGGLVQPGGSLRLSCATSGFTFSDFYMDWVRQPPGKRLEWIATSRNKANDYTTEYSASVRGRFIVSRDTSQSILYLQMNALRAEDTAIYYCARDAVWEPFAYWGQGTLVTVSA
VL: EIVLTQSPTTMAASPGEKITVTCSANSSISSNSLHWYQQKPGFSPKLLIYRTSNLASGVPARFSGSGSGTSYFLTIGTMEAEDVATYYCQQGTSIPRTFGGGTKLEIK
B5: anti-CD84 hybridoma clone 13D11 (antibody, V domains shown)
VH: QVTLKESGPGLLQPSQTLSLTCSFSGFSLNTSNMGVGWIRQPSGKDLEWLAHIWWDDVKRYNPALKSRLTISKDTSNNQVFLKIASVDTADTATYYCARMRGDYTMDYWGQGTSVTVSS
VL: DIVLTQSPASLAVSLGQRATLSCRASQSVSTSLYSYMHWYQQKPGQPPKLLIKYASDLESGVPARFSGSGSGTDFTLHIHPVEEEDTATYYCQHSWEIPYTFGGGTKLEIK
B6: anti-CD84 hybridoma clone 8A5 (antibody, V domains shown)
VH: QIQLVQSGPELKKPGETVKISCKASGYTFTTYSMHWVKQAPGKGLKWMGWIDTATGEPTYADDFKGRFAFSLETSASTAYLQINNLNNDDTATYFCVKSAYWYFDVWGAGTTVTVSS
VL: DVLMTQTPLSLPVSLGDQASISCRSSQSIVHINGNTYLEWYLQKPGQSPKLLIYKVSNRFSGVPDRFSGSGSGTDFTLKISRVEAEDLGVYYCFQGSHVPWTFGGGTKLEIK

biological target: T1, human CD84 on the cell surface; experiment: flow cytometry, hybridoma supernatant on NS0 cells expressing human CD84
Protocol: Hybridoma clones selected from ELISA screening were subjected to flow cytometric analyses with NSO, a mouse myeloma cell line (ECACC), expressing human CD84 via lentiviral transduction. Half a million of transduced cells were incubated with 100 mL of hybridoma culture supernatants on ice for 30 min and washed with cold PBS containing 1% fetal bovine serum and 0.1% sodium azide.

Compared with B1, B2 is higher in “Geometric Mean” value: 1690 for the first, 2260 for the second.

Compared with B3, B4 is lower in “Geometric Mean” value: 1550 for the first, 1100 for the second.

First: B5
Second: B6
The “Geometric Mean” value of the first is higher: 2120 for the first, 1810 for the second.

biological target: T1, human CD84 on the cell surface; experiment: flow cytometry, control on NS0 cells expressing human CD84

Ctrl showed a Geometric Mean of 88.
